Data: PMC7008241, “Radiolabeled Cationic Peptides for Targeted Imaging of Infection” (Contrast Media & Molecular Imaging, 2019)
“And” between values parts separate entries of the source, which are not always exact repeats. Equal values may be shown once. Where a SMILES comes first, the peptide text is derived from it. [ ]: non-standard residue; d: D form. The star is where a group is joined. DOTA = O=C(O)CN1CCN(CC(=O)O)CCN(CC(=O)*)CCN(CC(=O)O)CC1; X1 = CC(=O)c1ccc(OCCC*)cc1B(O)O

Experiments:
[1] = in vivo; design: species or system mice; conditions: mouse, iv, total radioactivity
Description: (§1) All animal experiments were performed according to animal use protocols approved by the University of Alabama at Birmingham Institutional Animal Care and Use Committee (IACUC). Animals were housed under controlled conditions with a natural light-dark cycle. They were allowed to adapt to the housing environment for at least 48 h prior to study. Biodistribution and PET imaging studies with ^64Cu-HLys-DOTA and ^64Cu-AB1-HLys-DOTA were conducted in mice intramuscularly (IM) infected in the thigh muscle with SA and PBS as a control. Thirty-six male mice (25–30 g, 4–5 weeks old) infected with SA were used for animal studies. For each peptide, 4 mice were used for small animal PET imaging at 1, 4, and 24 h, and then sacrificed at 24 h for a post-PET biodistribution. Another set of 4 mice each was used for biodistribution studies at 1 and 4 h. A similar set of mice was used for blocking studies with ^64Cu-AB1-HLys-DOTA peptide. In order to check the specificity of ^64Cu-AB1-HLys-DOTA for Gram-positive bacteria, imaging and post-PET biodistribution studies were conducted in another set of mice (four) intramuscularly (IM) infected in the thigh muscle with PA and PBS.
(§2) Mice for infection studies were anesthetized prior to the intramuscular infection of SA or PA. Animals were immobilized with isoflurane. Bacteria cells concentrated in sterile PBS were injected into the thigh muscle and the site of injection pinched to minimize bleeding. SA or PA suspension (50 μL, 2.6–2.8 × 10^7 CFU per mouse) was intramuscularly injected into the right thigh muscle, and sterile PBS (50 μL) was injected into the left thigh muscle as control. Mice were placed back into the cages and allowed to recover with frequent monitoring to identify any sign of extreme distress. The infection was allowed to develop for 3–5 days before intravenous injection of the radiolabeled probe. The muscles on the left and right thighs were harvested, homogenized, and plated on mannitol agar plates or cultured in LB broth to verify the presence of infection. In addition, [^18F]FDG imaging was also performed in infected animal models as described in the PET imaging section below to further confirm the existence of infection in the right thigh and the absence thereof in the left thigh.
For biodistribution studies, 3.3–3.7 MBq (90–100 μCi) of ^64Cu-HLys-DOTA or ^64Cu-AB1-HLys-DOTA was injected into prewarmed tail vein of the animals under anesthesia. Animals were euthanized at 1 and 4 h after radiotracer administration (n = 4 for each tracer at each time point). At 24 h after small animal PET imaging, the mice were also euthanized for a post-PET biodistribution. In a similar set of experiment, excess of the unlabeled peptide, 150 nmol, was coinjected with the radiolabeled peptides per mouse. The organs of interest were collected, weighed, and measured for radioactivity content using a gamma counter. The data were background-corrected and decay-corrected. The biodistribution data were expressed as percentage of injected radioactive dose per gram of tissue (%ID/g) for selected organs as the mean value of four mice.

[2] = in vivo; design: species or system mice; conditions: mouse, iv, total radioactivity; remark: listed apart in the source
Description: as §1, §2
(§3) Small animal PET/CT imaging studies were conducted in SA-infected and PA-infected animal models. Each radiolabeled peptide, 3.3–3.7 MBq (90–100 μCi), was administrated via tail vein injection of prewarmed mice under anesthesia. The inflammatory response caused by the infection was confirmed by intravenous injection of [^18F]FDG, 3.7 MBq (100 μCi), into mice infected on the right thigh muscle with SA or PA and on the left with PBS as control. For this small animal PET imaging, 1 and 4 h post-injection static scans were collected. Following imaging studies, the mice were sacrificed for biodistribution. Mice were allowed to recover from anesthesia until the time of imaging. Mice were anesthetized with 2‐3% isoflurane/oxygen and imaged on the small animal PET/CT scanner. Static images were collected at 1, 4, and 24 h for 15, 20, and 30 min, respectively. PET images were coregistered with CT image for anatomical colocalization. Regions of interest (ROI) were manually drawn over organs of interest with CT anatomical guidelines, and the associated radioactivity was measured using Inveon Research Workstation software. Standard uptake values (SUV) were calculated as nCi/cc × animal weight/injected dose, and comparisons in pharmacokinetics of radiolabeled peptides were assessed.

[3] = system: Staphylococcus aureus (SA) infected thigh muscle; test: in vivo; design: species or system mice; conditions: mouse
Description: as §1, §2, §3

[4] = system: Staphylococcus aureus (SA), ATCC 6538; test: Bacterial cell uptake of 64Cu-labeled peptides in Staphylococcus aureus; format: cell-based; conditions: SA 0.9–1.3 × 10^7 CFU/mL in PBS pH 7.4, 37°C, 24 h, 0.925–0.999 MBq, gamma counter, triplicates, mean ± SD
Description: (§4) All solvents and reagents were obtained from Sigma-Aldrich Company unless otherwise specified. […] Diethylenetriaminepentaacetic acid (DTPA) was purchased from Sigma (St. Louis, MO). 1,4,7,10-Tetraazacyclododecane-1,4,7,10-tetraacetic acid mono-N-hydroxysuccinimide ester (DOTA-NHS-ester) was purchased from Macrocyclics (Dallas, Texas). C18 SepPak cartridges were obtained from Waters Corporation (Milford. MA). Radiometric instant thin-layer chromatography measurements were accomplished using a TLC scanner (Bioscan AR-2000 Scanner). Reverse-phase chromatography analysis was performed on a C18 column (PA) with an infinity diode-array UV detector (Agilent, Lake Forest, CA) and a PMT/NaI remote radioactive detector (LabLogic Systems Ltd, Brandon, FL). Laura radiochromatography software (LabLogic Systems Ltd, Brandon, FL) was used to quantify chromatograms by integration. Radioactive samples were counted using a 2480 Wizard II automatic gamma counter (PerkinElmer, Downers Grove, IL). Imaging studies were done by using […] (Sofie BioSciences) [CT-80 Kvp, 5 min (approximately 100 μm), PET-Resolution ≤1 mm]. Acquired PET/CT images were analyzed with InveonTM Research Workplace (IRW) (Siemens). […] At each time point, the mixture was spun down, washed twice with PBS, and the final bacterial pellets were measured using a gamma counter to determine the percent of associated radiolabeled peptide. […]

[5] = system: Pseudomonas aeruginosa (PA), ATCC 47085; test: Bacterial cell uptake of 64Cu-labeled peptides in Pseudomonas aeruginosa; format: cell-based; conditions: PA in PBS pH 7.4, 37°C, gamma counter, triplicates, mean ± SD
Description: as §4

[6] = male, uptake in the control muscle
[7] = male, mean SUV in the infected muscle
[8] = male, mean SUV of the heart (blood retention)
[9] = male, mean SUV of the heart (dose retention)

Row | Compound | tissue uptake at 1 h [1, 6] | tissue uptake at 4 h [1, 6] | tissue uptake at 24 h [1, 6] | tissue uptake at 24 h [1] | SUV at 1 h [2, 7] | SUV at 4 h [2, 7] | SUV at 24 h [2, 7] | SUV at 1 h [2, 8] | SUV at 24 h [2, 9] | SUV at 1 h [2] | SUV at 4 h [2] | fold increase in accumulation (SUV) vs. ^64Cu-HLys-DOTA at the infection [3] | bacteria cell uptake (percent of associated radiolabeled peptide) [4] | binding to PA (cell uptake) ([5]; 5 min after incubation) | binding to PA (cell uptake) ([5]; 24 h after incubation)
1 | CC(=O)c1ccc(OCCCSC[C@H](NC(=O)CNC(=O)[C@@H](CCCNC(=N)N)NC(=O)[C@@H](CC(N)=O)NC(=O)[C@@H](CCCNC(=N)N)NC(=O)[C@@H](Cc2c[nH]c3ccccc23)NC(=O)[C@@H](C)NC(=O)[C@H](NC(=O)[C@@H](Cc2c[nH]c3ccccc23)NC(=O)[C@@H](Cc2ccc(O)cc2)NC(=O)[C@@H](CCCNC(=N)N)NC(=O)CN2CCN(CC(=O)O)CCN(CC(=O)O)CCN(CC(=O)O)CC2)C(C)C)C(N)=O)cc1B(O)O [^64Cu-AB1-HLys-DOTA, metal not drawn] ({DOTA}-[dR][dY][dW][dV][dA][dW][dR][dN][dR]GC(X1)-NH2) | 2.5 ± 0.5 %ID/g | 1.1 ± 0.4 %ID/g | 0.8 ± 0.1 %ID/g | 0.49 ± 0.11 %ID/g | 0.7 ± 0.08 SUV | 0.49 ± 0.04 SUV | 0.31 ± 0.01 SUV | 0.65 ± 0.08 SUV | 0.26 ± 0.04 SUV | 0.28 ± 0.1 SUV | 0.19 ± 0.1 SUV | 2.4-4 fold | – | – | –
2 | CC(C)[C@@H](NC(=O)[C@@H](Cc1c[nH]c2ccccc12)NC(=O)[C@@H](Cc1ccc(O)cc1)NC(=O)[C@@H](CCCNC(=N)N)NC(=O)CN1CCN(CC(=O)O)CCN(CC(=O)O)CCN(CC(=O)O)CC1)C(=O)N[C@H](C)C(=O)N[C@H](Cc1c[nH]c2ccccc12)C(=O)N[C@H](CCCNC(=N)N)C(=O)N[C@H](CC(N)=O)C(=O)N[C@H](CCCNC(=N)N)C(=O)NCC(N)=O [^64Cu-HLys-DOTA, metal not drawn] ({DOTA}-[dR][dY][dW][dV][dA][dW][dR][dN][dR]G-NH2; N-terminus and C-terminus assumed) | 0.6 ± 0.1 %ID/g | 0.4 ± 0.1 %ID/g | – | – | 0.17 ± 0.06 SUV | 0.16 ± 0.02 SUV | 0.13 ± 0.01 SUV | 0.25 ± 0.05 SUV | 0.21 ± 0.04 SUV | – | – | – | 39.12 ± 3.27% and 39.1 ± 3.3% | 1.9 ± 0.4% | 5.2 ± 0.3%
